B1: Protein NRD1 (Saccharomyces cerevisiae), P53617 (parent)
chain: MQQDDDFQNFVATLESFKDLKSGISGSRIKKLTTYALDHIDIESKIISLIIDYSRLCPDSHKLGSLYIIDSIGRAYLDETRSNSNSSSNKPGTCAHAINTLGEVIQELLSDAIAKSNQDHKEKIRMLLDIWDRSGLFQKSYLNAIRSKCFAMDISNNTANTASQQLSLDPKQRSKQILSNLKKSPPLNLNISLPTDLTSTDPAKQQAALFQVIAALQKHFKTLPSHTSVGTVAPPQAHTITEYGSRRERERERERYNSRRNRSRSPPAPFSQPSTGRKDRYPSVAQDQYSIGAPNTTFGTNNHHLYPDELNVSNNPHYRPKPVSYDSTLPPDHIKVYSRTLFIGGVPLNMKEWDLANVLKPFAEVQSVILNNSRKHAFVKVYSRHEAENVLQNFNKDGALPLRTRWGVGFGPRDCCDYQHGYSIIPMHRLTDADKKWSVSAQWGGTSGQPLVTGIVFEEPDIIVGEGVSSKAISQKMPTDSGRNGPRSGKPNKSGSISSISPVPYGNAPLASPPPQQYVQPMMQQPYGYAPNQPLPSQGPAAAAPPVPQQQFDPTAQLNSLMNMLNQQQQQQQQS
partner: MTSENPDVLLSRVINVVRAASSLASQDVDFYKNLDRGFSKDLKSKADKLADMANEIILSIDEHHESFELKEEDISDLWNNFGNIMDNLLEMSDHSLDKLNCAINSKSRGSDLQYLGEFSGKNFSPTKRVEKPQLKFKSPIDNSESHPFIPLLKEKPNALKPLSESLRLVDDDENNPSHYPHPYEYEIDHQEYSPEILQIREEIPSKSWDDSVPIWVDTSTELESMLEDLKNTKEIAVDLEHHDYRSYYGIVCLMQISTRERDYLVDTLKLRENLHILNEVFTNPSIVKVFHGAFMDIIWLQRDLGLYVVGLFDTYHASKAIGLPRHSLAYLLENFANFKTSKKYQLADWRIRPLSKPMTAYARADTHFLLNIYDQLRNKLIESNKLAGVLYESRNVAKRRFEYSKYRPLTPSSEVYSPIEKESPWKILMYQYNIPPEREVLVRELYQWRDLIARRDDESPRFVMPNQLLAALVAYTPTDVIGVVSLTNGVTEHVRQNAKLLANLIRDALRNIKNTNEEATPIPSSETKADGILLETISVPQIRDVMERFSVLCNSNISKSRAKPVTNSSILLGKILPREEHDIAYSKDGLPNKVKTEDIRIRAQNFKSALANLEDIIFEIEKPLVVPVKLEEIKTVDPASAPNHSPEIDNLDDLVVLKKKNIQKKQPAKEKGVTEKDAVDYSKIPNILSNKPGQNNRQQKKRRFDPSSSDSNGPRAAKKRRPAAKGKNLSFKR

Variants of: B1
Conditions: with rrp6_yeast RRP6, Q12149

effect of a mutation on the interaction | Variant
with no effect | V379R

Reference: IntAct's records for PubMed 16427013
